Article PMC5458255

Biological target: CCR7 receptor (human (endogenous in NKL3 and MDA-MB-231)) (UniProt P32248)
UniProt P32248, sequence (P32248 25-378): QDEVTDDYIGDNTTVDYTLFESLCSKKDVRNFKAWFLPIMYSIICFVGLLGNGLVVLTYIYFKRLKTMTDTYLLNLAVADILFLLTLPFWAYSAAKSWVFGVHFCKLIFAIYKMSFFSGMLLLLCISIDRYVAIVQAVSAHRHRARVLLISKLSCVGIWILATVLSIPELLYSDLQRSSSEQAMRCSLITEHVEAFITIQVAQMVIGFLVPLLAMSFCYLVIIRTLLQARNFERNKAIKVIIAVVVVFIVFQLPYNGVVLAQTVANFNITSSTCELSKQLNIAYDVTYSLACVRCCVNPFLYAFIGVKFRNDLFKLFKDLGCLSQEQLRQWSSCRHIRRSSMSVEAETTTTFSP

- adhesion under flow of NKL3 cells to HPLNEC.B3 endothelial cells treated with CCL21, hypoxia; total inhibition by anti-CCR7 neutralizing antibodies: 2.5 fold
Substance: recombinant human CCL21 (from UniProt O00585 24-134) (ligand)
